Where no end group is shown, it is not given here.

T1: native human ESRRG protein (Estrogen-receptor related receptor gamma) (human, UniProt P62508 229-458, limits assumed)
T1 construct: the screened protein is called 'native human ESRRG protein'; also called ESSRG; ERRγ
T1 sequence (looked up): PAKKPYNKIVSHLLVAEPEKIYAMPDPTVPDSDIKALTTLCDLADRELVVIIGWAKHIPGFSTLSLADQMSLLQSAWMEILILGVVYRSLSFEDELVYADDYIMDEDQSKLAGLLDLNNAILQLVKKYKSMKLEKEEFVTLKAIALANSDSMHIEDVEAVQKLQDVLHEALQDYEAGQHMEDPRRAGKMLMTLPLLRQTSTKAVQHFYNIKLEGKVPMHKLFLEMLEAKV

The target of the first assay is T1, native human ESRRG protein …. The experiment in a line: peptide microarray, Iteration 1; bound ESRRG detected with fluorescent anti-ESRRG mAb. Here is the method: (§1) Screening was carried out typically by hybridization of the protein (1 μg/mL) against the array for 1 h at 4° C.; detection of bound protein was carried out using a fluorescently labeled anti-ESRRG mAb. (Direct labeling of ESRRG and alternative detection strategies are equally valid).
Daughter candidate ligands and their new Tier 3 and/or Tier 1 based combinations were synthesized in situ on an addressable peptide microarray and screened against native human ESRRG protein in order to determine sequences that bind to this protein. Bound protein was detected by a fluorescently labeled anti-ESRRG mAb. […] Excess (100×) competing biological matrices (human serum, HSA/BSA or bacterial protein extract) were used as backgrounds to select for specific ligands to the protein. Other competing proteins can be added to background for specificity selection and directed evolution of ligands.
Turning to Ac-AIRGHLMG, the “Sample B (Probe) Signal” value is 935 fluorescence intensity units and the “log2 (Sample B/Sample A)” value stood at 5.63.
The corresponding values for Ac-AIRVHLMG are 690 fluorescence intensity units and 5.87.
Taken in the same sequence, the figures for Ac-RKALVGKY were 868 fluorescence intensity units and 4.95.
On to Ac-KSLLQQLL, for which the “Sample B (Probe) Signal” value is 7390 fluorescence intensity units and the “log2 (Sample B/Sample A)” value came out at 6.38.
As to Ac-ANNSWLLH, the “Sample B (Probe) Signal” value is 1260 fluorescence intensity units and the “log2 (Sample B/Sample A)” value was found to be 5.97.
For Ac-ANNVLLLH, the “Sample B (Probe) Signal” value was 2000 fluorescence intensity units and the “log2 (Sample B/Sample A)” value was 4.92.
In the case of Ac-ANNVKLLH, the “Sample B (Probe) Signal” value was 1720 fluorescence intensity units and the “log2 (Sample B/Sample A)” value is 5.04.
Ac-ANNSQLLH: the “Sample B (Probe) Signal” value is 955 fluorescence intensity units and the “log2 (Sample B/Sample A)” value worked out at 9.9.
Taken in the same sequence, the figures for Ac-ANNVSLLH were 1820 fluorescence intensity units and 4.87.
With Ac-ANNSSLLH, the “Sample B (Probe) Signal” value was 1150 fluorescence intensity units and the “log2 (Sample B/Sample A)” value came out at 7.29.
Taken in the same sequence, the figures for Ac-NSLRKHLL were 856 fluorescence intensity units and 5.36.
The corresponding values for Ac-NSLKKHLL are 9220 fluorescence intensity units and 10.8.
In the case of Ac-NSLLKHLL, the “Sample B (Probe) Signal” value was 14800 fluorescence intensity units and the “log2 (Sample B/Sample A)” value worked out at 7.65.
Turning to Ac-NIKVHANN, the “Sample B (Probe) Signal” value was 863 fluorescence intensity units and the “log2 (Sample B/Sample A)” value was determined as 6.58.
Consider Ac-RKAIFGKY, for which the “Sample B (Probe) Signal” value is 818 fluorescence intensity units and the “log2 (Sample B/Sample A)” value was found to be 5.11.
The corresponding values for Ac-NSLSWHLL are 1040 fluorescence intensity units and 5.34.
With Ac-AANMLLLL, the “Sample B (Probe) Signal” value is 1190 fluorescence intensity units and the “log2 (Sample B/Sample A)” value amounted to 5.52.
The corresponding values for Ac-AANYILLL are 2010 fluorescence intensity units and 7.19.
The corresponding values for Ac-AANMSLLL are 1220 fluorescence intensity units and 6.16.
Taken in the same sequence, the figures for Ac-AANYVLLL were 2200 fluorescence intensity units and 7.22.
As to Ac-AANMYLLL, the “Sample B (Probe) Signal” value was 4010 fluorescence intensity units and the “log2 (Sample B/Sample A)” value came to 5.95.
Taken in the same sequence, the figures for Ac-AANYLLLL were 3760 fluorescence intensity units and 7.4.
On to Ac-AANNYLLL, for which the “Sample B (Probe) Signal” value was 3440 fluorescence intensity units and the “log2 (Sample B/Sample A)” value turned out to be 6.78.
Taken in the same sequence, the figures for Ac-IKQNHNNS were 794 fluorescence intensity units and 9.63.
Taken in the same sequence, the figures for Ac-IKQDHNNS were 701 fluorescence intensity units and 9.45.
The corresponding values for Ac-NNSWSLHL are 729 fluorescence intensity units and 4.95.
Ac-LLHLQKSQ: the “Sample B (Probe) Signal” value is 745 fluorescence intensity units and the “log2 (Sample B/Sample A)” value amounted to 5.64.
On to Ac-LHLKGSQT, for which the “Sample B (Probe) Signal” value is 622 fluorescence intensity units and the “log2 (Sample B/Sample A)” value was 6.48.

The target is the same in the next assay. In words: peptide microarray, Iteration 2; bound ESRRG detected with fluorescent anti-ESRRG mAb. Here is the method: as §1
Iterative sequence expansion and arraying of 10 highest binding ligands to ESRRG from Iteration 1 was carried out and the new peptide sequences were synthesized on an array and screened against the protein, as described above. In this step, the central 2 amino acids (core) in peptide sequences were maintained unchanged while outlying amino acids (2, 3, 6, and 7) were permuted (using Tier 1 and Tier 3 substitutions) in a ‘cipher’ or ‘combination’ lock approach.
Regarding Ac-FWKGHFDF, the “Sample B (Probe) Signal” value was 1460 fluorescence intensity units and the “log2 (Sample B/Sample A)” value was found to be 2.66.
For the molecule Ac-LYLLKHHP, the “Sample B (Probe) Signal” value was 2530 fluorescence intensity units and the “log2 (Sample B/Sample A)” value worked out at 3.05.
As to Ac-FYNMYLLN, the “Sample B (Probe) Signal” value was 1560 fluorescence intensity units and the “log2 (Sample B/Sample A)” value is 2.63.
Regarding Ac-VLLHYGLY, the “Sample B (Probe) Signal” value is 1800 fluorescence intensity units and the “log2 (Sample B/Sample A)” value was determined as 2.37.

For the next assay the target is unchanged. In words: custom peptide microarray density chip.
What is called Kd is the free concentration of one partner at which half of the binding sites on the other are occupied at equilibrium, for simple one-to-one binding. A lower Kd goes with a tighter complex. Ac-AIRLFLMG had a Kd of 0.0138 µM.
The same measure, in the same setting: as for Ac-FWKGHFDF, the figure is 0.00916 µM; as for Ac-SLLFHLLK, 0.0267 µM.
On the same count and under the same terms, the figure for Ac-LYLLKHHP is 0.0291 µM.
Still for that read-out and setting: as for Ac-FYNMYLLN, the figure is 0.0274 µM.
Ac-QYPKMQRL displayed a Kd of 0.0179 µM.
On the same count and under the same terms, as for Ac-VQYNYLQR, the figure is 0.0193 µM; as for Ac-ANNIRLLH, 0.0189 µM; as for Ac-ANNVRLLH, 0.0305 µM.
Same read-out and setting: the figure for Ac-ANNLRLLH is 0.0289 µM; for Ac-IFSYVRVY it is 0.0154 µM; for Ac-IFSYPRVY it is 0.0175 µM.
For Ac-NSLRKHLL, the Kd is 0.0244 µM.
The same measure, in the same setting: the figure for Ac-NSLKKHLL is 0.0183 µM; for Ac-NSLLKHLL it is 0.0207 µM; for Ac-NIKLFANN it is 0.0247 µM.
Same read-out and setting: the figure for Ac-IFSEIRVY is 0.0161 µM.
The same measure, in the same setting: as for Ac-IFSEMRVY, the figure is 0.00788 µM; as for Ac-IFSKIRVY, 0.0156 µM.
Ac-VLLHYGLY returned a Kd of 0.0274 µM.
As for Ac-IKQNHNNS, binding was put at a Kd of 0.0125 µM.
Same read-out and setting: the figure for Ac-IKQDHNNS is 0.0157 µM; for Ac-NNSWRLHL it is 0.0294 µM.
